In the DeepSol protein solubility set:

Assay: soluble on expression in E. coli; label from the status in PepcDB or PDB records
For “MPCVQAQYSPSPPGSTYATQTYGSEYTTEIMNPDYAKLTMDLGSTGIMATATTSLPSFSTFMEGYPSSCELKPSCLYQMPPSGPRPLIKMEEGREHGYHHHHHHHHHHHHHHQQQQPSIPPPSGPEDEVLPSTSMYFKQSPPSTPTTPGFPPQAGALWDDELPSAPGCIAPGPLLDPQMKAVPPMAAAARFPIFFKPSPPHPPAPSPAGGHHLGYDPTAAAALSLPLGAAAAAGSQAAALEGHPYGLPLAKRTATLTFPPLGLTASPTASSLLGESPSLPSPPNRSSSSGEGTCAVCGDNAACQHYGVRTCEGCKGFFKRTVQKNAKYVCLANKNCPVDKRRRNRCQYCRFQKCLSVGMVKEVVRTDSLKGRRGRLPSKPKSPLQQEPSQPSPPSPPICMMNALVRALTDATPRDLDYSRYCPTDQATAGTDAEHVQQFYNLLTASIDVSRSWAEKIPGFTDLPKEDQTLLIESAFLELFVLRLSIRSNTAEDKFVFCNGLVLHRLQCLRGFGEWLDSIKDFSLNLQSLNLDIQALACLSALSMITERHGLKEPKRVEELCNKITSSLKDHQRKGQALEPSEPKVLRALVELRKICTQGLQRIFYLKLEDLVSPPSVIDKLFLDTLPF”, the “soluble on expression in E. coli” value was “soluble”. In the case of “MPDEKDKHEGTWLQWPHEYTYGEEYKKEVEPIWVKMASALTEGEKVHIVAYDQEEKERINNLLTDEGLNMEKIDFFIAPTDDVWARDSGPIFVYDSNKNLKILDPAFNGWGKKTPYKNDAQIRKNVSKQSGIERVDWGKFVLEGGAIELDSNGTALLTRSAVTNKNRNPDLSEKEIEKYISDLGVSNFIWLDGVPNLDITDFHIDGFAKFHNKSTIVTMKEDDLAEWGLSNKDMDTLLDAKNASGQKYKYEYLPLSKEKVALENGKTLDYKGSYINYYIGNTVVLVPNYNDPNDKIANDTIQKLYPDRKVVGIDVRELYKNGGMIHCVTQQQPIALK”, the “soluble on expression in E. coli” value is reported as “not soluble”. With “MPDGWRKMGVLVFYDLPVVSPEQRLAAVRFHKFLLADGFERMHYSIYARYCGSMERAATYERRVEQALPAVGHVNLLKLTDRQMVGMRKWIRGNYRAPENAEFVPPAQYQLFLEHHHHHH” the “soluble on expression in E. coli” value was “not soluble”. For “MPDPQGGEIVYVGGTLLDLNRYELYYQFDFTAKYEITEEDTRQAEDVNALPDLSLLSIDVDYIDPGTGPDGDIEHHLEMRFPQN”, the “soluble on expression in E. coli” value was “not soluble”. For “MPDSSMKRGATLCLALAIGPGSTLADDSLGHRDNISTGLNQRQKAEMKVPPGFVEGSTLNGFIRNYYFARDNHDTPSRRDQREWAQGLMLSFRSGYTDTPIGIGLDAHAFYGLRLDGGGGSGGAGVLPLDSAGRPADSFSAAGAALKLRGLDSLLKIGDQLLENPVIASGVSRMVPQSYRGVTLKNYHFRALELDAGFVEATRLRNQSGHSHLTSGYGNGTKGGIAADRESPHIAWLGASYSAPGGSQATLYSGRLEDIWNQHYLGLSQPWRLSSQLTLTPWLHYYKTRDQGRSQLGRIDNDLYNAGLTLAGGGQSLSLSLQKVDGDTPFDFIAQNDRTFLYESNAMQYADFNGPGERSWKIQYQASLAFLAAPDWQFGAAYGRGQADLTRVDPDSAGYGYLYNPNGKNAQHWERDLSLRYAFPAGPAKGLSVTLRWATHRPGEGYTAPGNTRGNSSSDEYRVVVDYPIRLL”, the “soluble on expression in E. coli” value was “not soluble”. For “MPEASHPDHLIRAGRLQADDARLFTPEADGPADQTPPDEPGWLVTLATWKAAAATLRARRHPVGVQLPPDARLDELTGPDGELDRAALSFIAIEFPVYTDGRGYSLAQLLRRRYGWDGELRAVGDVMIDTIHYQARVGFDSFLVKPGHDPQRALAAFRTFSVHYQHTYPAPLAA”, the “soluble on expression in E. coli” value was “not soluble”. In the case of “MPEDLALESNPSDHPRASTIFLSKSQTDVREKRKSNHLNHCDLSNILPHKEQREKVPEEYFKHDPEHKFIYRFVRTLFSAAQLTAECAIVTLVYLERLLTYAEIDICPTNWKRIVLGAILLASKVWDDQAVWNVDYCQILKDITVEDMNEMERHFLELLQFNINVPASVYAKYYFDLRSLADDNNLNFLFAPLSKERAQNLEAISRLCEDKDLCRAAMRRSFSADNFIGIQRSKAILS”, the “soluble on expression in E. coli” value is reported as “not soluble”. For “MPEFIIVEGNNDLGEFFQIDGELFSDNELLENLKKWREWEVPVIIDDWCNRILNEDETEILYFPTHEDKMNYIRVEKDLEPLYHTSNKIYATISKSEWLELLN”, the “soluble on expression in E. coli” value was “not soluble”. For “MPEHLNARVEACYRQAEHFFQRSFPRPTVSFRLRGQKAGVAHLDENLLRFNPQLYRENREHFLEQTVAHEVAHLIAHQLFGPRIRPHGEEWQLIMRGIYGLPPDRCHTYAVKRRATTRYLYRCHCPEHNDFPFSPQRHTLVAKGRRYYCRRCKATLVFTGEVLRELEHHHHHH”, the “soluble on expression in E. coli” value was “soluble”.
